Test results reported in the DeepSol protein solubility set.

Test: soluble on expression in E. coli; label from the status in PepcDB or PDB records

Sequence | soluble on expression in E. coli
MSWWQRAVIYQVYPRSFQDTNGDGVGDLEGIRRRLPYLKSLGVDALWLSPFYKSPMKDFGYDVADYCDVDPVFGTLQDFDRLLEEAHALGLKVLVDLVPNHTSSEHPWFLESRASRNSPKRDWYIWKDPAPDGGPPNNWQSFFGGPAWTLDEATGQYYLHLFLPEQPDLNWRNPEVREAIKEVMRFWLRRGVDGFRVDVLWLLGKDPLFRDEPGSPLWRPGLPDRARHEHLYTEDQPETYAYVREMRQVLDEFSEPGRERVMVGEIYLPLPRLVRYYAAGCHLPFNFSLVTEGLSDWRPENLARIVETYEGLLSRWDWPNWVLGNHDQPRLASRLGEPQARVAAMLLFTLRGTPTWYYGDELALPNGLIPPEKVQDPAALRQRDREPTAYHTLGRDPERTPMPWDASPYGGFSTVEPWLPLNPDYRTRNVAAQEKDPRSMLHLVKRLIALRKDPDLLYGAYRTYRAREGVYAYLRGEGWLVALNLTEKEKALELPRGGRVVLSTHLDREERVGERLFLRPDEGVAVRLD | soluble
MSDIESLGEAAGLFEEPEDFLPPPPKPHFAEYQRSHITKESKSDVKDIKLRLVGTSPLWGHLLWNAGIYTANHLDSHPELIKGKTVLELGAAAALPSVICALNGAQMVVSTDYPDPDLMQNIDYNIKSNVPEDFNNVSTEGYIWGNDYSPLLAHIEKIGNNNGKFDLIILSDLVFNHTEHHKLLQTTKDLLAEKGQALVVFSPHRPKLLEKDLEFFELAKNEFHLVPQLIEMVNWKPMFDEDEETIEVRSRVYAYYLTHEK | soluble
MEVDNVKPSSSVPQRNWEKENNVQNVDSIFEYNNKQQVEIRNAKPWDKDPHYFKQIKISAIALLKMTMHAKRGGNLEIMGLLQGRIDANSFIILDVFALPVEGTETRVNAQAQAYEYMTVYSEMCDTEGRKEKVVGWYHSHPGYGCWLSGIDVSTQTLNQKFQEPWVAIVIDPLRTMSAGKVDIGAFRTYPEGYRPPDDVPSEYQSIPLAKIEDFGVHCKRYYSLDVSFFKSQLDAHILTSLWNSYWISTLSSSPLFSNVEFLNNQIQDINQKLSAVDKKLQLNDRSVDGHEALMKVVTDAKAVGDELETGRISHLVKQLLFARQAGGGCGCSHASAGSPMDIAVATEPEKAGPSPSAPEPAVEMADA | not soluble
MILKRAYDVTPQKISTDKVRGVRKRVLIGLKDAPNFVMRLFTVEPGGLIDRHSHPWEHEIFVLKGKLTVLKEQGEETVEEGFYIFVEPNEIHGFRNDTDSEVEFLCLIPKEGGE | not soluble
MSLSQIVAEVDGYKVTKEELDTLFHVFWKRITHLSSAKPTQEDKRIFLIDYVADLLILKEAKKMGIEVSEKEINDFIRKYVGRKIKEKSVINAVKAEILVEKLVDKLMKEQELNPSEDILRAYYEFYKREFYRPSSVKLLGIYVKSKKEAERISQILKQGEVPSTEDVKVSKPLWYSIPTLPKYIRRNFRTLSVGEVSKPIKINDGYLVFKILDKKEGHHHHHH | soluble
SEKMSRPLPLNPTFIPPPYGVLRSLLENPLKLPLHHEDAFSKDKDKEKKLDDESNSPTVPQSAFLGPTLWDKTLPYDGDTFQLEYMDLEEFLSENGIPPSPSQHDHSPHPPGLQPASSAAPSVMDLSSRASAPLHPGIPSPNCMQSPIRPGQLLPANRNTPSPIDPDTIQVPVGYEPDPADLALSSIPGQEMFDPRKRKFSEEELKPQPMIKKARKVFIPDDLKDDKYWARRRKNNMAAKRSRDARRLKENQIAIRASFLEKENSALRQEVADLRKELGKCKNILAKYEARHGPL | soluble
MTESKTAIIFDMDGVLVDSEAYYYERRKAFLAEFDLTIEGLTLPELVGADMRSLWQKIEQVNKKELDIAFLNEQYIAYKKAHPIDYLAVLDENAKRVLQFLKRQGYKIGLASSSTKDAIEEVLTVGQLSSYFDAVVSGEDFEESKPAPDIYLHTLQELAVAPQECIAIEDSEKGIASAKEAGLEVWAMRDEHFGMDQSQADAFLTQLSDICKKISENRIDESSESTPS | not soluble
MGSDKIHHHHHHMRLILYLGKGGVGKTTTSAATAVRAAELGYRTLVVSTDVAHSLADALDTPLGSLPTQITERLWGQEINVLDEVREHWGELRVYLSNLLRRRGVDEVAAEELAIIPGMEEVVSLLHIRRQAREGNFDVVIVDAAPTGETVRLLTMPETFQWYAARVMDWEPTTLKVARPLVKQLVPATDVFAKLERLTKGVEALRATLTDPQISSYRLVVNPERMVIKEAQRASTYLALFGYPVDGVVLNRVLPVDQVEGAFMQELARIQQGYRQMVYDLFRPLPIWESPYFARDLAGIEDLAMVGRRLFGDDDPVKVHFIGKTQEIVKQGDEYVLRLPLPHVEIGKVSMTKRGDELFIEIGNFRRDMLLPTTLAERPARRAYFRNGVLEVFFGPPETLSLKTDAQEESTPS | not soluble
